Results from US20250277036A1 (POLYGON THERAPEUTICS, published 2025).
Substitutions are numbered along the chain they refer to.

B1: MP08-R3-C11 in the rat IgG2b kappa format (antibody, V domains shown)
VH: EVQLVESGGSLVKPGGSLRLSCAASGFTFSNYDMNWVRQAPGKGLEWISDISGSSSYIDYADFVKGRFTISRDNAKNSLYLQMNSLRAEDTAVYYCVRSSYYSGSGMDVWGRGTLVTVSS
VL: QSVLTQPASVSGSPGQSITISCAGTSSDVGGGSSVSWYQQHPGKAPKLMIYQDSYRPSGVSNRFSGSKSGNTASLTISGLQAEDEADYYCSSYTYYSTRVFGGGTKLAVL
notes: Same VH and VL cloned into a rat IgG2b kappa format; also called MP08-R3-C11 rat IgG2b
B2: MP09-R3-D03 in the rat IgG2b kappa format (antibody, V domains shown)
VH: EVQLVESGGSLVKPGGSLRLSCAASGFTFSNYYMNWVRQAPGKGLEWISSISGSSRYIYYADFVKGRFTISRDNAKNSLYLQMNSLRAEDTAVYYCVRSSGSYFGNAMDVWGRGTLVTVSS
VL: B1 VL with G32Y, S33Y, Q52Y, Y55S, Y93D, Y95S
notes: Same VH and VL cloned into a rat IgG2b kappa format; also called MP09-R3-D03 rat IgG2b; MP09-R3-D3
B3: MP08-R3-F08 in the rat IgG2b kappa format (antibody, V domains shown)
VH: EVQLVESGGSLVKPGGSLRLSCAASGFTFSNNAMNWVRQAPGKGLEWISDISGSSRYIGYADFVKGRFTISRDNAKNSLYLQMNSLRAEDTAVYYCVRSSNYYDYNADAMDVWGRGTLVTVSS
VL: B1 VL with G32N, S34Y, Q52S, Y55S, Y95Q
notes: Same VH and VL cloned into a rat IgG2b kappa format; also called MP08-R3-F08 rat IgG2b
B4: MP09-R3-D03 in the human IgG1 lambda format (antibody, V domains shown)
VH: B2 VH
VL: B1 VL with G32Y, S33Y, Q52Y, Y55S, Y93D, Y95S
notes: Whole human IgG1 lambda made in ExpiCHO cells; also called hMP09-R3-D03; MP09-R3-D03 human IgG1 clone
B5: MP08-R3-C11 in the human IgG1 lambda format (antibody, V domains shown)
VH: B1 VH
VL: B1 VL
notes: Whole human IgG1 lambda made in ExpiCHO cells; also called hMP08-R3-C11; MP08-R3-C11 human IgG1 clone
B6: MP08-R3-F08 in the human IgG1 lambda format (antibody, V domains shown)
VH: B3 VH
VL: QSVLTQPASVSGSPGQSITISCAGTSSDVGGNSYVSWYQQHPGKAPKLMIYSDSSRPSGVSNRFSGSKSGNTASLTISGLQAEDEADYYCSSYTQYSTRVFGGGTKLAVLG
notes: Whole human IgG1 lambda made in ExpiCHO cells; also called hMP08-R3-F08; MP08-R3-F08 human IgG1 clone; copies: 2 + 2

biological target: T1, Biotinylated recombinant mouse CD8α (Sino biological #50389-M08H-B) (mouse, UniProt P01731 28-196, biotinylated (site not stated)); assay: dose-response ELISA, rat IgG2b format
T1 sequence (P01731 28-196 limits assumed, stated change not applied): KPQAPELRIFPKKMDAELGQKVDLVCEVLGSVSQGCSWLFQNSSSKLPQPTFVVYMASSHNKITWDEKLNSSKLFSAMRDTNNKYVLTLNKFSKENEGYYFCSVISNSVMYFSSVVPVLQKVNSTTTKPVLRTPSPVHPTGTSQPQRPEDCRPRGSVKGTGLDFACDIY
Description: (§1) […] of streptavidin were coated on Nunc Maxisorp 96-well plates (ThermoFisher #442404) at 100 μL/well and incubated 1 hour at room temperature. Biotinylated human CD8α (Fisher Scientific #17196181) and mouse CD8α (Sino biological #50389-M08H-B) were added at 0.5 μg/mL in 100 μL/well and incubated overnight at 4° C. Human CD4 (Sino biological #10400-H08H) was coated passively at 1 μg/mL in 100 μL/well and incubated overnight at 4° C. Plates were then blocked using 200 μL of PBS containing 4% skimmed milk for 1 hour at room temperature.
(§2) The three antibody clones (in both human IgG1 lambda and rat IgG2b kappa formats) were diluted in milk-PBS and tested at different concentrations (75, 25, 8.3, 2.8, 0.93, 0.31, 0.103, 0.034, 0.011, 0.0038, 0.0013 and 0.00042 μg/mL). 100 μL/well were incubated 1 hour at room temperature.
(§3) TMB ((3,3′,5,5′ tetramethylbenzidine) Thermo Scientific #12617087) was added for a 3-minute incubation. Reaction was stopped with H₂SO₄ and absorbance at 450 nm was read on a microplate reader (Pherastar FS, BMG Labtech).

| Binder | binding result |
| --- | --- |
| B1 | no binding (tested: 75 µg/mL (highest concentration tested)) |
| B2 | no binding (tested: 75 µg/mL (highest concentration tested)) |
| B3 | no binding (tested: 75 µg/mL (highest concentration tested)) |

biological target: T1, Biotinylated recombinant mouse CD8α …; assay: dose-response ELISA, human IgG1 format
Description: as §1, §2, §3

| Binder | binding result |
| --- | --- |
| B4 | no binding (tested: 75 µg/mL (highest concentration tested)) |
| B5 | no binding (tested: 75 µg/mL (highest concentration tested)) |
| B6 | no binding (tested: 75 µg/mL (highest concentration tested)) |

biological target: T2, Recombinant human CD4 (Sino biological #10400-H08H) (human, UniProt P01730 26-390); assay: dose-response ELISA on coated human CD4, rat IgG2b format
Description: as §1, §2, §3

| Binder | binding result |
| --- | --- |
| B1 | no binding (tested: 75 µg/mL (highest concentration tested)) |
| B2 | no binding (tested: 75 µg/mL (highest concentration tested)) |
| B3 | no binding (tested: 75 µg/mL (highest concentration tested)) |

biological target: T2, Recombinant human CD4 (Sino biological …); assay: dose-response ELISA on coated human CD4, human IgG1 format
Description: as §1, §2, §3

| Binder | binding result |
| --- | --- |
| B4 | no binding (tested: 75 µg/mL (highest concentration tested)) |
| B5 | no binding (tested: 75 µg/mL (highest concentration tested)) |
| B6 | no binding (tested: 75 µg/mL (highest concentration tested)) |

biological target: T3, Biotinylated recombinant human CD8α (Fisher Scientific #17196181) (human, UniProt P01732 22-182, biotinylated (site not stated)); assay: dose-response ELISA on biotinylated human CD8α captured on streptavidin, rat IgG2b format
T3 construct: Bought protein; also called hCD8α; recombinant human CD8α protein
T3 sequence (P01732 22-182 limits assumed): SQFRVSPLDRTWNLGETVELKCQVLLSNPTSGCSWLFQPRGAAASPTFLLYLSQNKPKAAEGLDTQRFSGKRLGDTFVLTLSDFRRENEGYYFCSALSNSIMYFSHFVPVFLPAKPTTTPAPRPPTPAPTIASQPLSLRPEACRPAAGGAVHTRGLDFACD
Description: as §1, §2, §3

| EC50 [pM] | Binder |
| --- | --- |
| 480 | B1 |
| 990 | B2 |
| 200 | B3 |

biological target: T3, Biotinylated recombinant human CD8α …; assay: dose-response ELISA on biotinylated human CD8α captured on streptavidin, human IgG1 format
Description: as §1, §2, §3

| EC50 [pM] | Binder |
| --- | --- |
| 2000 | B4 |
| 2400 | B5 |
| 280 | B6 |
